The target in this experiment is T1, recombinant human p53, N-terminal His tag (human, UniProt P04637 1-393).
T1 construct: human p53, wild type, 393 aa per subunit as printed; plasmid pET15b-His-human p53; also called WT p53; source: E. coli, purified (nickel nitrilotriacetic acid-agarose chromatography)
The experiment is described as follows: co-IP; purified PEPD or a PEPD mutant at 100 nM incubated with p53 at 200 nM in PBS, 100 µl, 2 h, room temperature; then PEPD antibody (2 µg) in 300 µl PBS overnight at 4 °C, protein G-agarose, IB. The note with it: both partners purified.

T1 sequence (P04637 whole entry): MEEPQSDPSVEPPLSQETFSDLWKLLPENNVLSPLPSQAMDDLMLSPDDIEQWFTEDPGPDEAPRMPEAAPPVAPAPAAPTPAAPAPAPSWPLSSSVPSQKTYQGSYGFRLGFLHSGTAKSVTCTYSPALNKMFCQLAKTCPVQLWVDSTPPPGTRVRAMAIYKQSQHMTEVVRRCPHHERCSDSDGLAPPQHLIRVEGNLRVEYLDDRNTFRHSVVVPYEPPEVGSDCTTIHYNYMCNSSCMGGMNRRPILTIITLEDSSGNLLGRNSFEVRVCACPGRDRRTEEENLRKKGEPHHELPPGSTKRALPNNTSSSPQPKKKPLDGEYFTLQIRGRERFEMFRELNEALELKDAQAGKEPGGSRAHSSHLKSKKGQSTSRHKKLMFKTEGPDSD

B1: recombinant human PEPD^265-493aa, C-terminal His tag (domain or fragment, UniProt P12955 265-493, looked up)
chain: RTIQNGDMCLFDMGGEYYCFASDITCSFPANGKFTADQKAVYEAVLRSSRAVMGAMKPGVWWPDMHRLADRIHLEELAHMGILSGSVDAMVQAHLGAVFMPHGLGHFLGIDVHDVGGYPEGVERIDEPGLRSLRTARHLQPGMVLTVEPGIYFIDHLLDEALADPARASFLNREVLQRFRGFGGVRIEEDVVVTDSGIELLTCVPRTVEEIEACMAGCDKAFTPFSGPK
notes: also called C-terminal 229 aa; source: E. coli, purified (nickel nitrilotriacetic acid-agarose chromatography)
For the molecule B1, the binding result is reported as “binds”.

(Values after publication PMC5727116, “PEPD is a pivotal regulator of p53 tumor suppressor” (Nature Communications, 2017).)
